Test results from publication PMC11677393 (International Journal of Molecular Sciences, 2024).

How the values were obtained:
[1] = molecular target: the molecule itself; assay: SEC; Superdex 75 during purification; 20 mM HEPES pH 7.6, 500 mM NaCl, 0.1 mM TCEP; elution compared with standard proteins
[2] = molecular target: the molecule itself; assay: crystal structure; apo GLI1(234–302), no DNA; sitting drop, 29–32% PEG3350, 0.1 M Bis-Tris pH 6.5; two molecules in the asymmetric unit, space group P65, 2.05 Å

Protein | stoichiometry N [1] | binding result [2]
GLI1(234–388) (domain or fragment, human, UniProt P08151 234-388, looked up, a few residues of the TEV site and linker may remain at the N-terminus (surmised); PDB 2GLI is the cited structure of GLI1 Zif1-5 with DNA; also called Zif truncation with 5 Zif motifs; Zif1-5; not shown: His6, N-terminal, cleaved; SUMO (yeast SMT3), N-terminal, cleaved) ETDCRWDGCSQEFDSQEQLVHHINSEHIHGERKEFVCHWGGCSRELRPFKAQYMLVVHMRRHTGEKPHKCTFEGCRKSYSRLENLKTHLRSHTGEKPYMCEHEGCSKAFSNASDRAKHQNRTHSNEKPYVCKLPGCTKRYTDPSSLRKHVKTVHG | 2 | –
GLI1(234–326) (domain or fragment, human, UniProt P08151 234-326, looked up, a few residues of the TEV site and linker may remain at the N-terminus (surmised); also called Zif truncation with 3 Zif motifs; not shown: His6, N-terminal, cleaved; SUMO (yeast SMT3), N-terminal, cleaved) ETDCRWDGCSQEFDSQEQLVHHINSEHIHGERKEFVCHWGGCSRELRPFKAQYMLVVHMRRHTGEKPHKCTFEGCRKSYSRLENLKTHLRSHT | 2 | –
GLI1(234–358) (domain or fragment, a few residues of the TEV site and linker may remain at the N-terminus (surmised); also called Zif truncation with 4 Zif motifs; not shown: His6, N-terminal, cleaved; SUMO (yeast SMT3), N-terminal, cleaved) not shown | 2 | –
Human GLI1 truncation containing zinc finger motif 1 and 2 (residue 234–302) (domain or fragment, TEV protease was used to remove His-SUMO; Two zinc ions per chain; also called GLI1 Zif1-2; source: E. coli Rosetta pLysS, purified (Ni-NTA, TEV cleavage, glutathione column, HiTrap Q HP, Superdex 75); not shown: His6, N-terminal, cleaved; SUMO (yeast SMT3), N-terminal, cleaved) ETDCRWDGCSQEFDSQEQLVHHINSEHIHGERKEFVCHWGGCSRELRPFKAQYMLVVHMRRHTGEKPHK | – | binds
